Data from article PMC10881741, “Structural modifications toward improved lead-203/lead-212 peptide-based image-guided alpha-particle radiopharmaceutical therapies for neuroendocrine tumors” (European Journal of Nuclear Medicine and Molecular Imaging, 2023).
Read-outs that look alike come from different tables or passages of the source.

Assays:
[1] = In vivo biodistribution of ^203Pb-labeled peptides; parameters: species or system mice; details: female, athymic nu/nu, mouse, intravenous, 37 kBq, total radioactivity; for tissue uptake at 3 h: 3 h post-administration; for tissue uptake at 24 h: 24 h post-administration; for tissue uptake at 1 h: 1 h post-administration
Protocol: AR42J cells (5.0 × 10^6 cells/animal) were implanted subcutaneously on the left shoulder of female athymic nu/nu mice. […] Extra groups of mice were co-administered 37 kBq of ^203Pb-PSC-PEG2-TOC with DL-lysine (400 mg/kg) to determine the effect of amino acid on renal uptake of the radiopharmaceutical. Mice (n=3 per time point) were euthanized at 1, 3, and 24 h post-administration, and tumors and organs/tissues of interest were excised and weighed. The radioactivities of the samples were measured using the gamma counter.

[2] = Stability in water and human serum (radio-HPLC); type: in vitro ADME; details: ^203Pb-labeled, 37 °C, up to 24 h
Excerpt: New peptides were designed and synthesized using standard fluorenylmethyloxycarbonyl (Fmoc)-based solid phase peptide synthesis. The peptides were developed under two basic strategies: (a) a click cyclization approach to substitute the disulfide bond of TOC with a triazole link, which potentially improves PK and in vivo stability; and (b) Pb-specific structural optimization based on TOC by incorporating the new chelator composition and various sizes of PEG linkers (Fig. 1 and Table 1). […] The radiolabeling and purification process for the preparation of ^203Pb/^212Pb-labeled peptides followed the methods outlined in a previously published study. […] The stability of the most promising RPDC, [^203Pb]Pb-PSC-PEG2-TOC, was evaluated in water and normal human serum up to 24 h of incubation at 37 °C using the radio-HPLC system. Furthermore, PSC-PEG2-TOC was assessed for a radiolabeling yield with clinically relevant ^203Pb activity (1.8–3.6 GBq) to assess changes in performance with increases in molar activity (MBq/nmol; Supplementary Material).
PSC-PEG2-TOC was characterized for stability in water and human serum. […] The penetrate by centrifugation (serum samples) or the samples in water were analyzed by a radio-HPLC system (Agilent 1200 Series connected with an IN/US β-RAM Model 4 radio-detector) to monitor the degree of peptide degradation.

SSTR2 = target: T1, SSTR2 (Rattus norvegicus, UniProt P30680); experiment: In vitro competitive binding assay ([^125I]I-TOC displacement in AR42J cells)
T1 construct: host or cells: AR42J rat pancreatic acinar cells
Protocol: SSTR2-positive AR42J rat pancreatic acinar cells were purchased from the American Type Culture Collection (ATCC; CRL-1492) and were cultured in RPMI 1640 medium, supplemented with 10% fetal bovine serum (FBS), 2 mM glutamine, and antibiotics (0.1 mg/mL streptomycin and 100 IU penicillin) at 37 °C under a humidified condition (5% CO2). The cells were plated into poly-D-lysine-coated 24-well plates at a density of 1.0 × 10^5 cells per well. […] Cells were then washed twice with ice-cold PBS and lysed with 0.5 N NaOH. The radioactivities of the harvested samples were measured using an automated gamma counter (PerkinElmer Cobra II; PerkinElmer, Freemont, CA). IC50 was determined using GraphPad Prism V8.0.

midgut NETs = test system: midgut NETs; parameters: method as in PMID 28076709, PMID 28428192; details: patients with midgut NETs ref 5, 6; cited from earlier work
[3] = large intestine, read-out: Large intestine
[4] = small intestine, read-out: Small intestine

T1 sequence (P30680 whole entry): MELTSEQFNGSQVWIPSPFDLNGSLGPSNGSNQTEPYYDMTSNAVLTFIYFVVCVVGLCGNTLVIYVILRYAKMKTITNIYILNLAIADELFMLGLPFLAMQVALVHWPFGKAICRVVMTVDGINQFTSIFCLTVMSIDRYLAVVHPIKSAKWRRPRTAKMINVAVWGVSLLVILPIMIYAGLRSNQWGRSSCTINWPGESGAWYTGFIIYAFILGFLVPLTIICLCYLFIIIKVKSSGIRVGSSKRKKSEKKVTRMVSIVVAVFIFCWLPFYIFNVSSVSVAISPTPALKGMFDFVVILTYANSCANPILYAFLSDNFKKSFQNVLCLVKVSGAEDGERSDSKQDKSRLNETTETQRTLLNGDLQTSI

C[C@@H](O)[C@@H]1NC(=O)[C@H](CCCCN)NC(=O)[C@@H](Cc2c[nH]c3ccccc23)NC(=O)[C@H](Cc2ccc(O)cc2)NC(=O)[C@@H](NC(=O)[C@@H](Cc2ccccc2)NC(=O)CN2CCN(CC(=O)O)CCN(CC(=O)O)CCN(CC(=O)O)CC2)CSSC[C@@H](C(=O)N[C@H](CO)[C@@H](C)O)NC1=O [[^203Pb]Pb-DOTATOC, metal not drawn, reference compound]
tissue uptake at 3 h ([1]; blood, read-out: Blood): 0.02 %ID/g | tissue uptake at 24 h ([1]; blood, read-out: Blood): 0.01 %ID/g | tissue uptake at 1 h ([1]; brain, read-out: Brain): 0.03 ± 0.01 %ID/g | tissue uptake at 3 h ([1]; brain, read-out: Brain): 0.01 %ID/g | tissue uptake at 24 h ([1]; brain, read-out: Brain): 0.01 %ID/g | tissue uptake at 3 h ([1]; heart, read-out: Heart): 0.07 ± 0.05 %ID/g | tissue uptake at 24 h ([1]; heart, read-out: Heart): 0.02 ± 0.01 %ID/g | tissue uptake at 1 h ([1]; kidneys, read-out: Kidneys): 12.2 %ID/g | tissue uptake at 3 h ([1]; kidneys, read-out: Kidneys): 14.6 ± 2.34 %ID/g | tissue uptake at 24 h ([1]; kidneys, read-out: Kidneys): 7.6 %ID/g | tissue uptake at 1 h [1, 3]: 0.32 ± 0.12 %ID/g | tissue uptake at 3 h [1, 3]: 1.11 ± 0.74 %ID/g | tissue uptake at 24 h [1, 3]: 0.17 ± 0.04 %ID/g | tissue uptake at 1 h ([1]; liver, read-out: Liver): 0.28 ± 0.05 %ID/g | tissue uptake at 3 h ([1]; liver, read-out: Liver): 0.16 ± 0.02 %ID/g | tissue uptake at 24 h ([1]; liver, read-out: Liver): 0.08 ± 0.01 %ID/g | tissue uptake at 1 h ([1]; lung, read-out: Lung): 0.91 ± 0.41 %ID/g | tissue uptake at 3 h ([1]; lung, read-out: Lung): 0.59 ± 0.23 %ID/g | tissue uptake at 24 h ([1]; lung, read-out: Lung): 0.27 ± 0.04 %ID/g | tissue uptake at 1 h ([1]; muscle, read-out: Muscle): 0.1 ± 0.03 %ID/g | tissue uptake at 3 h ([1]; muscle, read-out: Muscle): 0.04 ± 0.01 %ID/g | tissue uptake at 24 h ([1]; muscle, read-out: Muscle): 0.02 %ID/g | tissue uptake at 1 h [1, 4]: 1.91 ± 0.8 %ID/g | tissue uptake at 3 h [1, 4]: 1.78 ± 2.19 %ID/g | tissue uptake at 24 h [1, 4]: 0.08 ± 0.06 %ID/g | tissue uptake at 1 h ([1]; spleen, read-out: Spleen): 0.27 ± 0.05 %ID/g | tissue uptake at 24 h ([1]; spleen, read-out: Spleen): 0.1 ± 0.01 %ID/g | tissue uptake at 1 h ([1]; tumor, read-out: Tumor): 4.6 ± 0.18 %ID/g | tissue uptake at 3 h ([1]; tumor, read-out: Tumor): 4.47 ± 0.75 %ID/g | tissue uptake at 24 h ([1]; tumor, read-out: Tumor): 2.44 ± 0.19 %ID/g

C[C@@H](O)[C@@H]1NC(=O)[C@H](CCCCN)NC(=O)[C@@H](Cc2c[nH]c3ccccc23)NC(=O)[C@H](Cc2ccc(O)cc2)NC(=O)[C@@H](NC(=O)[C@@H](Cc2ccccc2)NC(=O)CCOCCOCCNC(=O)CN2CCN(CC(=O)O)CCN(CC(N)=O)CCN(CC(=O)O)CC2)CSSC[C@@H](C(=O)N[C@H](CO)[C@@H](C)O)NC1=O [PSC-PEG2-TOC, PSC-PEG2-D-Phe-cyclo[Cys-Tyr-D-Trp-Lys-Thr-Cys]-Thr-OH]
Radiochemical and metabolic stability [2]: robust radiochemical stability | Improvement in affinity vs. DOTATOC (factor) (SSTR2): > 2

[^177Lu]Lu-DOTATATE
Complete response rate (midgut NETs): 1% | Objective responses (midgut NETs): 18–30%
